Source: paper PMC10698284

Assays:
[1] = anti-SLC3A2 antibody uptake, 10 min 37 °C; settings: glycan lost; control: WTseq
[2] = Gal3-488 internalisation, 10 min 37 °C; settings: glycan lost; control: WTseq
[3] = surface anti-SLC3A2 antibody binding at 4 °C, imaging; settings: glycan lost; control: WTseq
[4] = endosomal distribution of internalised SLC3A2, confocal; settings: glycan lost; control: WTseq (small peripheral endosomes)
[5] = response of SLC3A2 endocytosis to 5 min inhibitor; settings: glycan lost; control: WTseq (inhibitor reduced internalization by ∼50%)
[6] = dox-induced expression and FLAG pull-down efficiency; settings: control: WTseq

B1: SLC3A2 (4F2hc, CD98): N381D (protein)
parent chain: MELQPPEASIAVVSIPRQLPGSHSEAGVQGLSAGDDSELGSHCVAQTGLELLASGDPLPSASQNAEMIETGSDCVTQAGLQLLASSDPPALASKNAEVTGTMSQDTEVDMKEVELNELEPEKQPMNAASGAAMSLAGAEKNGLVKIKVAEDEAEAAAAAKFTGLSKEELLKVAGSPGWVRTRWALLLLFWLGWLGMLAGAVVIIVRAPRCRELPAQKWWHTGALYRIGDLQAFQGHGAGNLAGLKGRLDYLSSLKVKGLVLGPIHKNQKDDVAQTDLLQIDPNFGSKEDFDSLLQSAKKKSIRVILDLTPNYRGENSWFSTQVDTVATKVKDALEFWLQAGVDGFQVRDIENLKDASSFLAEWQNITKGFSEDRLLIAGTNSSDLQQILSLLESNKDLLLTSSYLSDSGSTGEHTKSLVTQYLNATGNRWCSWSLSQARLLTSFLPAQLLRLYQLMLFTLPGTPVFSYGDEIGLDAAALPGQPMEAPVMLWDESSFPDIPGAVSANMTVKGQSEDPGSLLSLFRRLSDQRSKERSLLHGDFHAFSAGPGLFSYIRHWDQNERFLVVLNFGDVGLSAGLQASDLPASASLPAKADLLLSTQPGREEGSPLELERLKLEPHEGLLLRFPYAA
For B1, the localisation_or_trafficking [1] was “increases”, the “other: Gal3 uptake by expressing cells” value [2] was “decreases” and the localisation_or_trafficking [3] was “no change”. For the same protein, the localisation_or_trafficking [4] was “changes”, the localisation_or_trafficking [5] was “abolishes” and the expression_or_secretion ([6]; glycan lost) was “no change”.

B2: SLC3A2 (4F2hc, CD98): N365D (protein)
parent chain: B1 parent chain
In the case of B2, the localisation_or_trafficking [1] is reported as “increases”, the “other: Gal3 uptake by expressing cells” value [2] is reported as “increases” and the localisation_or_trafficking [3] is reported as “no change”. The localisation_or_trafficking [4] was “changes”, the localisation_or_trafficking [5] was “changes” and the expression_or_secretion ([6]; glycan lost) was “no change”.

B3: SLC3A2 (4F2hc, CD98): D355N + D492N (protein)
parent chain: B1 parent chain
With B3 the expression_or_secretion ([6]; glycan gained) was “no change”.

B4: SLC3A2 (4F2hc, CD98): A273N (protein)
parent chain: B1 parent chain
With B4 the expression_or_secretion ([6]; glycan gained) was “no change”.

B5: SLC3A2 (4F2hc, CD98): A273N + D355N (protein)
parent chain: B1 parent chain
In the case of B5, the expression_or_secretion ([6]; glycan gained) is reported as “no change”.
